Measurements: article PMC4585926, “A RANKL mutant used as an inter-species vaccine for efficient immunotherapy of osteoporosis” (Scientific Reports, 2015)

Tests used:
[1] = target: T1, mouse RANK extracellular domain (mouse, UniProt O35305 31-214); assay: SPR; Biacore 3000; NTA sensor chip charged with 0.3 M NiSO4, mRANK (50 nM, 15 ul) loaded; hRANKL or mutants injected at 0, 0.47, 0.94, 1.88, 3.75, 7.5, 15 and 30 nM; BIAevaluation 4.1; conditions: both partners purified
T1 construct: RANK, mouse, extracellular domain (plasmid pET28a-mRANK); also called mRANK; mRANK ectodomain; source: plasmid pET28a-mRANK
T1 sequence (looked up): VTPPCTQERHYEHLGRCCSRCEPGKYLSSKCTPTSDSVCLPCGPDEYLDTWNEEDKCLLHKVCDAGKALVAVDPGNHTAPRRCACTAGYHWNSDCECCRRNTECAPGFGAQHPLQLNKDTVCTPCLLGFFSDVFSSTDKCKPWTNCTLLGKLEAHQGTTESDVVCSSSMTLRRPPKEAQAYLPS

[2] = target: the molecule itself; assay: crystal structure; hRANKL and mRANK mixed 1:1 in 0.1 M Tris pH 7.0, 10 mg/mL; sitting drop at 294 K, microseeded with crushed mRANKL-mRANK crystals; 2.8 Å, space group P63
[3] = target: the molecule itself; assay: cross-linking; DSS to protein 0:1, 5:1, 10:1 and 20:1, in PBS pH 7.3, on ice 1 hour, stopped with 50 mM Tris pH 7.5; SDS-PAGE
[4] = target: T2, human RANKL ectodomain (residues 158-317) Arg223Ala plus Asp300Ala (human, UniProt O14788 158-317, Arg223Ala | Asp300Ala); assay: SPR
T2 sequence: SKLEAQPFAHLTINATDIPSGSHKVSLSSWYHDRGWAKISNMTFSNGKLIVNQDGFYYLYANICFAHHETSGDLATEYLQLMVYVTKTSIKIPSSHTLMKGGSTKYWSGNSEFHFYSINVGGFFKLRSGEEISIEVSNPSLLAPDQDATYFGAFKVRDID

[5] = target: T3, human RANKL ectodomain (residues 158-317) Arg223Ala (human, UniProt O14788 158-317, Arg223Ala); assay: SPR
T3 sequence: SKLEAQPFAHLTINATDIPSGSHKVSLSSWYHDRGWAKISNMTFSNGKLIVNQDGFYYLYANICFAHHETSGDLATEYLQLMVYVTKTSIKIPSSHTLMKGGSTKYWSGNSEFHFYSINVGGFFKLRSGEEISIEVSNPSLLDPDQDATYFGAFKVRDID

[6] = target: T4, human RANKL ectodomain (residues 158-317) Asp300Ala (human, UniProt O14788 158-317, Asp300Ala); assay: SPR
T4 sequence: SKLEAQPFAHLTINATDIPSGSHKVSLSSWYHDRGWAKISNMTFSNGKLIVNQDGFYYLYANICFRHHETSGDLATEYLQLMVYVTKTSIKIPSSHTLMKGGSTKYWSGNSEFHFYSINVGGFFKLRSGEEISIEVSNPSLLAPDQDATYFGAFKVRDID

B1: human RANKL ectodomain (residues 158-317), wild type (ligand, UniProt O14788 158-317, looked up)
chain: SKLEAQPFAHLTINATDIPSGSHKVSLSSWYHDRGWAKISNMTFSNGKLIVNQDGFYYLYANICFRHHETSGDLATEYLQLMVYVTKTSIKIPSSHTLMKGGSTKYWSGNSEFHFYSINVGGFFKLRSGEEISIEVSNPSLLDPDQDATYFGAFKVRDID
notes: RANKL, human, ectodomain, residues 158-317 (plasmid pGEX-6P-hRANKL); Homotrimer in the crystal structure; also called hRANKL; wild-type hRANKL; source: E. coli BL21, purified (glutathione-Sepharose, PreScission cleavage, Superdex 200); not shown: GST, N-terminal, cleaved
Q: What does the source list for B1?
A: Kd [1]: 0.156 nM; stoichiometry N [2]: 3

B2: human RANKL ectodomain (residues 158-317) Arg223Ala plus Asp300Ala (ligand, UniProt O14788 158-317, looked up)
chain: SKLEAQPFAHLTINATDIPSGSHKVSLSSWYHDRGWAKISNMTFSNGKLIVNQDGFYYLYANICFAHHETSGDLATEYLQLMVYVTKTSIKIPSSHTLMKGGSTKYWSGNSEFHFYSINVGGFFKLRSGEEISIEVSNPSLLAPDQDATYFGAFKVRDID
notes: RANKL, human, ectodomain, residues 158-317, with Arg223Ala and Asp300Ala (mutant of pGEX-6P-hRANKL); Trimeric by chemical cross-linking; also called hRANKL double-site mutant; source: E. coli BL21, purified (glutathione-Sepharose, PreScission cleavage, Superdex 200); not shown: GST, N-terminal, cleaved
Q: What does the source list for B2?
A: stoichiometry N [3]: 3; fold decrease in affinity against wild-type hRANKL [1]: 260 fold

B3: human RANKL ectodomain (residues 158-317) Arg223Ala (ligand, UniProt O14788 158-317, looked up)
chain: SKLEAQPFAHLTINATDIPSGSHKVSLSSWYHDRGWAKISNMTFSNGKLIVNQDGFYYLYANICFAHHETSGDLATEYLQLMVYVTKTSIKIPSSHTLMKGGSTKYWSGNSEFHFYSINVGGFFKLRSGEEISIEVSNPSLLDPDQDATYFGAFKVRDID
notes: RANKL, human, ectodomain, residues 158-317, with Arg223Ala (mutant of pGEX-6P-hRANKL); source: E. coli BL21, purified (glutathione-Sepharose, PreScission cleavage, Superdex 200); not shown: GST, N-terminal, cleaved
Q: Which “fold decrease in affinity against wild-type hRANKL” value [1] does the source give for B3 here?
A: 20 fold

B4: human RANKL ectodomain (residues 158-317) Asp300Ala (ligand, UniProt O14788 158-317, looked up)
chain: SKLEAQPFAHLTINATDIPSGSHKVSLSSWYHDRGWAKISNMTFSNGKLIVNQDGFYYLYANICFRHHETSGDLATEYLQLMVYVTKTSIKIPSSHTLMKGGSTKYWSGNSEFHFYSINVGGFFKLRSGEEISIEVSNPSLLAPDQDATYFGAFKVRDID
notes: RANKL, human, ectodomain, residues 158-317, with Asp300Ala (mutant of pGEX-6P-hRANKL); also called 300 M; source: E. coli BL21, purified (glutathione-Sepharose, PreScission cleavage, Superdex 200); not shown: GST, N-terminal, cleaved
Q: Which “fold decrease in affinity against wild-type hRANKL” value [1] does the source give for B4 here?
A: 70 fold

B5: mouse RANKL (ligand)
chain: KPEAQPFAHLTINAASIPSGSHKVTLSSWYHDRGWAKISNMTLSNGKLRVNQDGFYYLYANICFRHHETSGSVPTDYLQLMVYVVKTSIKIPSSHNLMKGGSTKNWSGNSEFHFYSINVGGFFKLRAGEEISIQVSNPSLLDPDQDATYFGAFKVQDID
notes: RANKL, mouse; the text names the ectodomain in general as residues 161-316 of mRANKL; also called mRANKL
Q: For B5, which Kd [1] is on record?
A: 0.068 nM

B6: mouse RANK extracellular domain (receptor)
chain: VTPPCTQERHYEHLGRCCSRCEPGKYLSSKCTPTSDSVCLPCGPDEYLDTWNEEDKCLLHKVCDAGKALVAVDPGNHTAPRRCACTAGYHWNSDCECCRRNTECAPGFGAQHPLQLNKDTVCTPCLLGFFSDVFSSTDKCKPWTNCTLLGKLEAHQGTTESDVVCSSSMTLRRPPKEAQAYLPS
Q: How did the Kd [4] turn out when B6 was run?
A: 39.4 nM

Q: And the Kd [5]?
A: 10.7 nM

Q: What about the Kd [6] of the same binder?
A: 2.15 nM
